Values of other authors in US8541373B2, “BChE albumin fusions for the treatment of cocaine abuse” (priority 2009, dated 2013).

Settings: cited from earlier work

| Molecule | kcat relative to wild-type BChE (cocaine hydrolase activity) [fold] | Catalytic efficiency relative to wild-type BChE (hydrolysis of cocaine) [fold] |
| --- | --- | --- |
| A328W/Y332A (protein, UniProt P06276 29-602, looked up, variant A328W Y332A) Cholinesterase: EDDIIIATKNGKVRGMNLTVFGGTVTAFLGIPYAQPPLGRLRFKKPQSLTKWSDIWNATKYANSCCQNIDQSFPGFHGSEMWNPNTDLSEDCLYLNVWIPAPKPKNATVLIWIYGGGFQTGTSSLHVYDGKFLARVERVIVVSMNYRVGALGFLALPGNPEAPGNMGLFDQQLALQWVQKNIAAFGGNPKSVTLFGESAGAASVSLHLLSPGSHSLFTRAILQSGSFNAPWAVTSLYEARNRTLNLAKLTGCSRENETEIIKCLRNKDPQEILLNEAFVVPYGTPLSVNFGPTVDGDFLTDMPDILLELGQFKKTQILVGVNKDEGTWFLVAGAPGFSKDNNSIITRKEFQEGLKIFFPGVSEFGKESILFHYTDWVDDQRPENYREALGDVVGDYNFICPALEFTKKFSEWGNNAFFYYFEHRSSKLPWPEWMGVMHGYEIEFVFGLPLERRDNYTKAEEILSRSIVKRWANFAKYGNPNETQNNSTSWPVFKSTEQKYLTLNTESTRIMTKLRAQQCRFWTSFFPKVLEMTGNIDEAEWEWKAGFHRWNNYMMDWKNQFNDYTSKKESCVGL | 40 |  |
| A227S/S315G/A356W/Y360G (protein, UniProt P06276 29-602, looked up, variant A227S S315G A356W Y360G) Cholinesterase: EDDIIIATKNGKVRGMNLTVFGGTVTAFLGIPYAQPPLGRLRFKKPQSLTKWSDIWNATKYANSCCQNIDQSFPGFHGSEMWNPNTDLSEDCLYLNVWIPAPKPKNATVLIWIYGGGFQTGTSSLHVYDGKFLARVERVIVVSMNYRVGALGFLALPGNPEAPGNMGLFDQQLALQWVQKNIAAFGGNPKSVTLFGESSGAASVSLHLLSPGSHSLFTRAILQSGSFNAPWAVTSLYEARNRTLNLAKLTGCSRENETEIIKCLRNKDPQEILLNEAFVVPYGTPLGVNFGPTVDGDFLTDMPDILLELGQFKKTQILVGVNKDEGTWFLVGGAPGFSKDNNSIITRKEFQEGLKIFFPGVSEFGKESILFHYTDWVDDQRPENYREALGDVVGDYNFICPALEFTKKFSEWGNNAFFYYFEHRSSKLPWPEWMGVMHGYEIEFVFGLPLERRDNYTKAEEILSRSIVKRWANFAKYGNPNETQNNSTSWPVFKSTEQKYLTLNTESTRIMTKLRAQQCRFWTSFFPKVLEMTGNIDEAEWEWKAGFHRWNNYMMDWKNQFNDYTSKKESCVGL |  | 500 |
